Assay results reported in patent US20200392228A1 (PANDION OPERATIONS, published 2020).
Positions count from the first letter of the chain named.

T1: mouse MAdCAM expressed on cells (mouse, UniProt Q61826 22-405)
T1 construct: whole, on cells
T1 sequence (looked up): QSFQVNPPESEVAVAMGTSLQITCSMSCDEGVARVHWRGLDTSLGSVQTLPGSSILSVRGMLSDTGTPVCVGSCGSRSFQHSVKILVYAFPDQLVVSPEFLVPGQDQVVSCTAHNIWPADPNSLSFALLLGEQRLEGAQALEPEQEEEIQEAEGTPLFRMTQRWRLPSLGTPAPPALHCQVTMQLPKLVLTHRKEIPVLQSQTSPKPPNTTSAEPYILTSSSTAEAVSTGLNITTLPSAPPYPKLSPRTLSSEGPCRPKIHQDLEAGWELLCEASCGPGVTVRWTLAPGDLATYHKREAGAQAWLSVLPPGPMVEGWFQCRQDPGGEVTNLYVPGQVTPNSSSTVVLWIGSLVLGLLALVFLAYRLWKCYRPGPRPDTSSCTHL

B1: MAdCAM antibody Clone ID 68 of Table 7 (IgG) (antibody, V domains shown)
VH: EVQLLESGGGLVQPGGSLRLSCAASGFTFGDYAMSWVRQAPGKGLEWVAVVSYDGTNKYYADSVKGRFTISRDNSKNTLYLQMNSLRAEDTAVYYCAKDICSSTSCYFDLWGRGTLVTVSS
VL: DIQMTQSPSSLSASVGDRVTITCRASQNINNYVNWYQQKPGKAPKLLIYDASNLETGVPSRFSGSGSGTDFTLTISSLQPEDFATYYCQQANSFPPTFGQGTRLEIK
notes: IgG format
B2: MAdCAM antibody Clone ID 69 of Table 7 (IgG) (antibody, V domains shown)
VH: QVQLVQSGAEVKKPGASVKVSCKASGYTFTSYYMHWVRQAPGQGLEWMGIIDPSGGSTSYAQKFQGRVTMTRDTSTSTVYMELSSLRSEDTAVYYCAREEWSSGGVGYFDYWGQGTLVTVSS
VL: DIQMTQSPSSLSASVGDRVTITCRASQGISSYLAWYQQKPGKAPKLLIYATSSLQTGVPSRFSGSGSGTDFTLTISSLQPEDFATYYCQQTYSIPITFGQGTRLEIK
notes: IgG format
B3: MAdCAM antibody Clone ID 70 of Table 7 (IgG) (antibody, V domains shown)
VH: QVQLVQSGAEVKKPGASVKVSCKASGYPFTDYYMHWVRQAPGQGLEWMGWIKPNSGDTEYAQKFQGRVTMTRDTSTSTVYMELSSLRSEDTAVYYCARDRFVGKPDYYYYGMDVWGQGTMVTVSS
VL: B2 VL with G28S, S31V, Y32W, T51A, T56S, T91S, S93D, I94T, I96Y, R103K
notes: IgG format
B4: MAdCAM antibody Clone ID 71 of Table 7 (IgG) (antibody, V domains shown)
VH: QVQLVQSGAEVKKPGASVKVSCKASGYTFTSYYMHWVRQAPGQGLEWMGIINPSGGSTSYAQKFQGRVTMTRDTSTSTVYMELSSLRSEDTAVYYCARDSVAGTGGRYYGMDVWGQGTLVTVSS
VL: B2 VL with S31N, L33F, T51A, T56G, T91S, I94L, I96Y, R103K
notes: IgG format
B5: MAdCAM antibody Clone ID 72 of Table 7 (IgG) (antibody, V domains shown)
VH: QVQLVQSGAEVKKPGASVKVSCKASGYTFTSYYMHWVRQAPGQGLEWMGVINPIGGTTTYAQKFQGRVTMTRDTSTSTVYMELSSLRSEDTAVYYCASGAPSYYYYGMDVWGQGTLVTVSS
VL: B2 VL with G28S, A34N, A50G, S53Y, Q55A, T91S, I94T, I96L, R103K, L104V
notes: IgG format
B6: MAdCAM antibody Clone ID 73 of Table 7 (IgG) (antibody, V domains shown)
VH: QVQLVQSGAEVKKPGASVKVSCKASGYTFTSNYVHWVRQAPGQGLEWMGRINPHSGDTSYAQKFQGRVTMTRDTSTSTVYMELSSLRSEDTAVYYCARAGQLWSDWYFDLWGRGTLVTVSS
VL: DIQMTQSPSSLSASVGDRVTITCQASQDIRNYLNWYQQKPGKAPKLLIYAATALRTGVPSRFSGSGSGTDFTLTISSLQPEDFATYYCQQSYSHPLTFGQGTKVEIK
notes: IgG format
B7: MAdCAM antibody Clone ID 80 of Table 7 (IgG) (antibody, V domains shown)
VH: EVQLLESGGGLVQPGGSLRLSCAASGFTFDDYAMHWVRQAPGKGLEWVSAISGSGGSTYYADSVKGRFTISRDNSKNTLYLQMNSLRAEDTAVYYCAKDLGVVVPAALDYWGQGTTVTVSS
VL: B6 VL with R30S, Y32H, A50D, T52S, A53N, R55E, T56A, H94T, Q100G
notes: IgG format
B8: MAdCAM antibody Clone ID 9 of Table 7 (IgG) (antibody, V domains shown)
VH: QVQLVQSGAEVKKPGASVKVSCKASGYTFTSYYMHWVRQAPGQGLEWMGIINHSGGSTSYAQKFQGRVTMTRDTSTSTVYMELSSLRSEDTAVYYCARPYSGWYFAFDIWGQGTLVTVSS
VL: not shown
notes: IgG format
B9: MAdCAM antibody Clone ID 26 of Table 7 (IgG) (antibody, V domains shown)
VH: EVQLLESGGGLVQPGGSLRLSCAASGFTFSSYAMSWVRQAPGKGLEWVSYISSSSTYTNYADSVKGRFTISRDNSKNTLYLQMNSLRAEDTAVYYCARANSSSWYDWYFDLWGQGTLVTVSS
VL: not shown
notes: IgG format
B10: MAdCAM antibody Clone ID 27 of Table 7 (IgG) (antibody, V domains shown)
VH: B9 VH with A33Q
VL: not shown
notes: IgG format

target: T1, mouse MAdCAM expressed on cells; test: cell binding

Binding result, no binding:
B1, B2, B3, B4, B5, B6, B7, B8, B9, B10
